Results reported in patent US20110262436A1, “TREATMENT METHOD” (Genentech, Inc., priority 2008, published 2011).

Legend:
[1] = tested on: locally advanced or metastatic solid tumors; experiment: Phase I study: anti-tumor activity (RECIST); format: in vivo, humans
Description: The following activity outcome measures are assessed: objective response, defined as a complete or partial response confirmed≧4 weeks after initial documentation; duration of objective response; and progression-free survival. Objective response and disease progression will be determined using RECIST.
Patient selection criteria.

[2] = Phase I dose-escalation study: pharmacokinetics; format: in vivo, humans; settings: patients
Description: Study design. There are two stages to this study, a dose-escalation stage and an expansion stage.
Study treatment. […] Dose levels tested in Phase I were: 1 mg/kg, 4 mg/kg, 10 mg/kg, 20 mg/kg, and 30 mg/kg.
MetMAb was administered as an IV infusion. […] The MetMAb infusion was slowed or interrupted for patients experiencing infusion-associated symptoms.
Pharmacokinetics of the study drug were determined by serially monitoring of serum samples for MetMAb throughout the study.

[3] = PK study, single IV bolus dose in Sprague-Dawley rats; format: in vivo
Description: (§1) PK studies. PK studies were conducted in mice, rats, and cynomolgus monkeys.
(§2) Pharmacokinetic Assays for MetMAb in Mouse Serum and Rat Serum. […] A direct ELISA assay was developed for quantification of MetMAb in mouse serum and Sprague-Dawley rat serum. Plates were coated with human c-Met-Fc fusion protein to which samples, standards, and dosing solutions were added. Goat anti-human F(Ab′)2 horseradish peroxidase (HRP) was used for detection. Tetrapethyl benzidine (TMB) peroxidase substrate was added for signal development. The substrate reaction was stopped with phosphoric acid. The plates were read at an absorbance of 450 nm. […] The lower limit of quantitation in the assay was 0.47 ng/mL and the upper limit of quantification was 30 ng/mL. The minimum dilution for nude mouse serum samples was 1/10, resulting in a minimum quantifiable concentration of 4.7 ng/mL, with an indefinite upper limit. The minimum dilution for rat serum samples was 1/50, resulting in a minimum quantifiable concentration of 23.5 ng/mL, with an indefinite upper limit.
(§3) Mouse, Rat, and Cynomolgus Monkey PK data analysis. […] PK parameters were estimated using WinNonlin Enterprise Version 5.0.1 (Pharsight Corp., Mountain View, Calif.). The nominal dose administered for each group was used for modeling. Since a single concentration-time profile for mice was determined for each group, one estimate of each PK parameter was obtained and is reported, along with the standard error (SE) of the fit of each PK parameter. For rats and monkeys, PK parameters are reported as mean (+/−SD).
(§4) For IV administrations, a two-compartment elimination model with IV bolus input and first-order elimination was used to describe the observed data (WinNonlin Model 7). Concentrations were weighted using iterative reweighting (1/ŷ^2) and the Nelder-Mead minimization algorithm. The following equation was used to calculate concentration over time in Model 7: […]

[4] = tested on: KP4 human pancreatic ductal cell carcinoma cells; experiment: Dose response study in KP4 xenograft mice; format: in vivo; settings: from Day 21 effect vs. dose profile
Description: In a dose response study, female nude (nu/nu) mice (age 6-8 weeks) were inoculated subcutaneously (SC) with 5×10^6 KP4 human pancreatic ductal cell carcinoma cells.
In all cases, tumors were measured with calipers throughout the study.

[5] = Safety factor calculation (cynomolgus monkey vs proposed human starting dose); parameters: species or system cynomolgus monkeys; settings: Planned Phase Ia starting dose 1 mg/kg
Description: Safety Factor Calculation. Safety factor was calculated for Dose, AUC, Cmax as the ratio at the highest non-severely toxic dose (HNSTD) observed in the single or repeat-dose safety study to the proposed phase I starting dose. The equations are:
Safety factor (SF)Dose=DoseCyno/DoseHuman
SFCmax=(Cmax-Cyno)/(Cmax-Human)
For body surface area calculation: The body weight to surface area index is 12 kg/m^2 for cynomolgus monkeys and 37.5 kg/m^2 for humans.

c-met = c-met (Rattus norvegicus, UniProt P97523); experiment: Binding to c-met in rats
[6] = PK study, single IV bolus dose in nude mice; format: in vivo
Description: as §1
The expected serum concentration at the time of serum sample collection was estimated based on PK parameters determined in the PK study in non-tumor bearing mice (described above). […] These PK parameters were used to estimate serum concentration by WinNonlin Enterprise Version 5.0.1 (Pharsight Corp., Mountain View, Calif.) for doses tested in IV infusion study.
as §2, §3, §4

[7] = Athymic nude mouse, single IV dose
[8] = non-tumor-bearing mice, two-compartmental model

Sequence of c-met (P97523 25-1382): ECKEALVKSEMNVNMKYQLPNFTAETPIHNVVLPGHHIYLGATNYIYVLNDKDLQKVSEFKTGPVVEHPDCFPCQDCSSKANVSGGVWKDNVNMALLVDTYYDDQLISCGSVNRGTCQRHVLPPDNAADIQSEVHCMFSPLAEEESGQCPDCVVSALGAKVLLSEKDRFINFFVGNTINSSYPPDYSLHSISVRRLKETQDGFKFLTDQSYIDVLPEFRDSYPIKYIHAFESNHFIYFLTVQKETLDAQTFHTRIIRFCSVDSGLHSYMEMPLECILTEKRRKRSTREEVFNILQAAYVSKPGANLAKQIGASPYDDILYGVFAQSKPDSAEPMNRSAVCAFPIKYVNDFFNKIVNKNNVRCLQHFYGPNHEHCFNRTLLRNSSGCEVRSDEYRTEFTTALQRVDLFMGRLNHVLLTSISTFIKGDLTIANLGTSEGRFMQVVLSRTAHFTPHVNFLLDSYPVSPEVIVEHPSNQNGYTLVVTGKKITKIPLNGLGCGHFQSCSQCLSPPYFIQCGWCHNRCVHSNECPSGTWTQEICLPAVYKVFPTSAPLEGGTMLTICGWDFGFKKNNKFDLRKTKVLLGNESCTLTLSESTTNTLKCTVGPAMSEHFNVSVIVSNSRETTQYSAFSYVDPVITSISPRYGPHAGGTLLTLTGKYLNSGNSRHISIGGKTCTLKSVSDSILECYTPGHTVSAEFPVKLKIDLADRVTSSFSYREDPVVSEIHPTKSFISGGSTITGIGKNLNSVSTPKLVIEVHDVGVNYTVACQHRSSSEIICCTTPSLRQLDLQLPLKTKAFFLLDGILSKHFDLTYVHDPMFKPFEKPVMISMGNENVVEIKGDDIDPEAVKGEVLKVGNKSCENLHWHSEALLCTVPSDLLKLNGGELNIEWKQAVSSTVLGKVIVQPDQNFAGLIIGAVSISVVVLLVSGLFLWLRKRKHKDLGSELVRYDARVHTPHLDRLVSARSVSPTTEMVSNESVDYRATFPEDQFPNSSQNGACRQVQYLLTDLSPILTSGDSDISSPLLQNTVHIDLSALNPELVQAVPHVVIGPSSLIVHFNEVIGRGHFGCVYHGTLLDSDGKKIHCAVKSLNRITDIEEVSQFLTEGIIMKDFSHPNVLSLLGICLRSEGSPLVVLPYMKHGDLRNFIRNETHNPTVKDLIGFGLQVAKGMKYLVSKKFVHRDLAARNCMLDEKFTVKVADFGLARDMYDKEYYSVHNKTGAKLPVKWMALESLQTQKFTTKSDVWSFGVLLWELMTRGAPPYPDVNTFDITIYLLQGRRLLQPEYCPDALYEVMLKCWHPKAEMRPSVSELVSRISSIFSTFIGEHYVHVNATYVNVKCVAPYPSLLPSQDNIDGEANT

In the case of “MetMAb: recombinant, humanized, monovalent (one-armed) monoclonal antibody directed against human c-met”, the “Progressive disease (patients)” value ([1]; 21 patients, dose escalation stage) is reported as “Three”, the “Response of patient 11009” value ([1]; gastric adenocarcinoma with metastatic liver lesion, CT Jun. 13, 2008, confirmed July 2008) is reported as “complete response” and the “Complete, objective response (patients)” value ([1]; gastric cancer patient, 20 mg/kg cohort) is reported as “one”. For the same substance, the “Inter-individual variability of serum concentrations at each dose level” value [2] was “less than 30%”, the “Clearance compared to the other dose groups” value ([2]; 1 mg/kg dose) was “slightly faster clearance” and the Half-life ([2]; IV Q3W) was “approximately 10 days”. For the same substance, the PK linearity ([2]; dose range 4 to 30 mg/kg) was “linear pharmacokinetics”, the “Terminal Half-Life” value ([3]; Sprague Dawley rat) was 124 h and the V1 ([3]; Sprague Dawley rat) was 0.0446 L/kg. For the same substance, the Vss ([3]; Sprague Dawley rat) was 0.107 L/kg, the CL ([3]; Sprague Dawley rat (n = 6)) was 0.783 mL/h/kg and the “Median efficacious dose (representative)” value [4] was 7.5 mg/kg. For the same substance, the “Minimal efficacious dose (representative)” value [4] was 2.5 mg/kg, the “Multiple Dose Safety Factor: Body Surface Area” value [5] was 105 and the “Multiple Dose Safety Factor: Total Dose” value [5] was 325. The “Single Dose Safety Factor: Body Surface Area” value [5] was 32, the “Single Dose Safety Factor: Single Dose” value [5] was 100 and the Binding to c-met (c-met) was “does not bind to c-met”. For the same substance, the “Terminal Half-Life” value [6, 7] was 113 h, the V1 [6, 7] was 0.0488 L/kg and the Vss [6, 7] was 0.14 L/kg. The Serum disposition ([6]; non-tumor-bearing mice) was “biphasic and exhibited dose-proportionality”, the “CLd (inter-compartmental clearance)” value [6, 8] was 7.92 mL/h/kg and the “V2 (apparent peripheral volume of distribution)” value [6, 8] was 0.0907 L/kg.
